# Measured values reported in publication PMC3873461, “The CD8-Derived Chemokine XCL1/Lymphotactin Is a Conformation-Dependent, Broad-Spectrum Inhibitor of HIV-1” (PLoS Pathogens, 2013).
# Molecular target: T1, purified YU2 gp120 protein (HIV-1 external envelope glycoprotein) (HIV-1 (strain YU2), UniProt P35961 32-498)
# T1 construct: also called HIV-1 envelope glycoprotein gp120; source: purified
# Assay: pull-down
# Settings: both partners purified
row,Binder,binding result
1,"recombinant wild type (WT) XCL1/lymphotactin (ligand, human, UniProt P47992 22-114, looked up, also called XCL1 WT) VGSEVSDKRTCVSLTTQRLPVSRIKTYTITEGSLRAVIFITKRGLKVCADPQATWVRDVVRSMDRKSNTRNNMIQTKPTGTQQSTNTAVTLTG",binds
2,"XCL1 W55D, variant that preferentially adopts the all-β, alternatively-folded dimeric structure (ligand, human, UniProt P47992 22-114, looked up) VGSEVSDKRTCVSLTTQRLPVSRIKTYTITEGSLRAVIFITKRGLKVCADPQATDVRDVVRSMDRKSNTRNNMIQTKPTGTQQSTNTAVTLTG",binds
